The record followed here is patent US20220160663A1 (SEOUL NATIONAL UNIVERSITY R AND DB FOUNDATION, published 2022).

The experiment has as its target T1, Glut1 (accession number: NP_006507) WT, HA-tagged (UniProt P11166 1-492).
T1 construct: Expressed in THP-1 cells from a plasmid; Detected in the pull-down by anti-HA Western blot; also called WT Glut1; Glut-HA; not shown: HA tag
T1 sequence (looked up): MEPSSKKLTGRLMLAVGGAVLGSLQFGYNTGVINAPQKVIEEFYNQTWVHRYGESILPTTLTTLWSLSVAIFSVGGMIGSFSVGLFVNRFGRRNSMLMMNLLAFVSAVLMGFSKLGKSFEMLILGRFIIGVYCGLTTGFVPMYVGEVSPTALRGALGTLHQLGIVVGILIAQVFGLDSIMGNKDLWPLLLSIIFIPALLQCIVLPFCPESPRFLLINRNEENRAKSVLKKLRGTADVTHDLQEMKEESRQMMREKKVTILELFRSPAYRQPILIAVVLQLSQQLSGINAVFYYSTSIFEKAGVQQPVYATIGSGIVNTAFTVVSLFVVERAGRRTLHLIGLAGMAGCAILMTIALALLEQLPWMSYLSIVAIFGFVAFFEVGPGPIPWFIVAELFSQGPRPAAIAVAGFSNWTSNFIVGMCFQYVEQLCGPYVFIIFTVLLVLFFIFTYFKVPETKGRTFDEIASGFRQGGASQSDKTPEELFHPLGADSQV
As to the kind of experiment: Strep pull-down from THP-1 cell extract, anti-HA Western blot. The procedure: THP-1 cell line was transfected with expression plasmids for TM4SF5-Strep (control vector, WT, N-Glycosylation-deficient mutant; N138A/N155Q), Palmitoylation-deficient mutant (C2/6/9/75/76/80/81/85/189A), Glut1 (accession number: NP_006507) WT, Glut1 K38A, and Glut1 E329Q, and after 48 hours, cell extracts were obtained. The binding of TM4SF5 and Glut1 was confirmed by Western blotting of Glut-HA using an anti-HA antibody by pulling-down with strepavidin agarose resin (Thermo Fisher Scientific).
(A western blot detects proteins with antibodies after separation by electrophoresis.)

B1: TM4SF5-Strep N-Glycosylation-deficient mutant N138A/N155Q (other, human, UniProt O14894 1-197, looked up)
chain: MCTGKCARCVGLSLITLCLVCIVANALLLVPNGETSWTNTNHLSLQVWLMGGFIGGGLMVLCPGIAAVRAGGKGCCGAGCCGNRCRMLRSVFSSAFGVLGAIYCLSVSGAGLRNGPRCLMNGEWGYHFEDTAGAYLLARTLWDRCEAPPRVVPWQVTLFSLLVAASCLEIVLCGIQLVNATIGVFCGDCRKKQDTPH
notes: Expressed in THP-1 cells and pulled down from the cell extract with streptavidin agarose; not shown: Strep tag
As for B1, the binding result was “no binding”.
